Measured values from PMC4824073, “Ribonucleoprotein particles of bacterial small non-coding RNA IsrA (IS61 or McaS) and its interaction with RNA polymerase core may link transcription to mRNA fate”.

How the values were obtained:
[1] = molecular target: RNAP (core or holo not stated) (UniProt P0A7Z4;P0A8V2;P0A8T7 1-329;1-1342;1-1407); assay: competition; unlabeled IsrA 15-fold excess vs labeled IsrA; yeast RNA, heparin after; EMSA (Figs 3B, 4): 1x buffer 15 mM Tris-HCl pH 8, 100 mM KCl, 1 mM MgCl2, 1 mM DTT, 1 ug yeast RNA, 37 C 10-20 min, then heparin on ice; Fig 3A as in ref 29 without yeast RNA; pull-down: 10 mM Tris-HCl pH 7.8, 200 mM KCl, 1 mM MgCl2, 5% glycerol, 1 mM DTT, 4 C, heparin 100 ug/ml wash; conditions: protein: native; chain copies: 2;1;1; label: 32P; three stem-loops
[2] = molecular target: RNAP core enzyme (UniProt P0A7Z4;P0A8V2;P0A8T7 1-329;1-1342;1-1407); assay: EMSA; heparin added after complex formation (heparin-resistant); EMSA (Figs 3B, 4): 1x buffer 15 mM Tris-HCl pH 8, 100 mM KCl, 1 mM MgCl2, 1 mM DTT, 1 ug yeast RNA, 37 C 10-20 min, then heparin on ice; Fig 3A as in ref 29 without yeast RNA; pull-down: 10 mM Tris-HCl pH 7.8, 200 mM KCl, 1 mM MgCl2, 5% glycerol, 1 mM DTT, 4 C, heparin 100 ug/ml wash; conditions: protein: native; chain copies: 2;1;1; label: 32P; three stem-loops
[3] = molecular target: RNAP core enzyme;sigma70 (Escherichia coli?;Escherichia coli?, UniProt P0A7Z4;P0A8V2;P0A8T7;P00579 1-329;1-1342;1-1407;1-613, |); assay: as above; conditions: protein: native;recombinant; tags: ;; chain copies: 2;1;1;1; label: 32P; three stem-loops

Measured: binding result

RNAP (core or holo not stated), sequence (P0A7Z4 whole entry, chain 1 of 3): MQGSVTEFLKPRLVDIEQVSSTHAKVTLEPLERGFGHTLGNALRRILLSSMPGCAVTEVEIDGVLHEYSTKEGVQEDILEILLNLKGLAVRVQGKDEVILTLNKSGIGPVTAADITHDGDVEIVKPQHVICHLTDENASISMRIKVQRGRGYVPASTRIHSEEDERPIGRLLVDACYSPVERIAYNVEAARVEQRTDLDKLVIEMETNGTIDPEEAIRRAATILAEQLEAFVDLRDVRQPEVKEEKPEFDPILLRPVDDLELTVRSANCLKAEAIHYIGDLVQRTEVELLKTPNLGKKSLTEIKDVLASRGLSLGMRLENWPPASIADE
RNAP (core or holo not stated), sequence (P0A8V2 whole entry, chain 2 of 3): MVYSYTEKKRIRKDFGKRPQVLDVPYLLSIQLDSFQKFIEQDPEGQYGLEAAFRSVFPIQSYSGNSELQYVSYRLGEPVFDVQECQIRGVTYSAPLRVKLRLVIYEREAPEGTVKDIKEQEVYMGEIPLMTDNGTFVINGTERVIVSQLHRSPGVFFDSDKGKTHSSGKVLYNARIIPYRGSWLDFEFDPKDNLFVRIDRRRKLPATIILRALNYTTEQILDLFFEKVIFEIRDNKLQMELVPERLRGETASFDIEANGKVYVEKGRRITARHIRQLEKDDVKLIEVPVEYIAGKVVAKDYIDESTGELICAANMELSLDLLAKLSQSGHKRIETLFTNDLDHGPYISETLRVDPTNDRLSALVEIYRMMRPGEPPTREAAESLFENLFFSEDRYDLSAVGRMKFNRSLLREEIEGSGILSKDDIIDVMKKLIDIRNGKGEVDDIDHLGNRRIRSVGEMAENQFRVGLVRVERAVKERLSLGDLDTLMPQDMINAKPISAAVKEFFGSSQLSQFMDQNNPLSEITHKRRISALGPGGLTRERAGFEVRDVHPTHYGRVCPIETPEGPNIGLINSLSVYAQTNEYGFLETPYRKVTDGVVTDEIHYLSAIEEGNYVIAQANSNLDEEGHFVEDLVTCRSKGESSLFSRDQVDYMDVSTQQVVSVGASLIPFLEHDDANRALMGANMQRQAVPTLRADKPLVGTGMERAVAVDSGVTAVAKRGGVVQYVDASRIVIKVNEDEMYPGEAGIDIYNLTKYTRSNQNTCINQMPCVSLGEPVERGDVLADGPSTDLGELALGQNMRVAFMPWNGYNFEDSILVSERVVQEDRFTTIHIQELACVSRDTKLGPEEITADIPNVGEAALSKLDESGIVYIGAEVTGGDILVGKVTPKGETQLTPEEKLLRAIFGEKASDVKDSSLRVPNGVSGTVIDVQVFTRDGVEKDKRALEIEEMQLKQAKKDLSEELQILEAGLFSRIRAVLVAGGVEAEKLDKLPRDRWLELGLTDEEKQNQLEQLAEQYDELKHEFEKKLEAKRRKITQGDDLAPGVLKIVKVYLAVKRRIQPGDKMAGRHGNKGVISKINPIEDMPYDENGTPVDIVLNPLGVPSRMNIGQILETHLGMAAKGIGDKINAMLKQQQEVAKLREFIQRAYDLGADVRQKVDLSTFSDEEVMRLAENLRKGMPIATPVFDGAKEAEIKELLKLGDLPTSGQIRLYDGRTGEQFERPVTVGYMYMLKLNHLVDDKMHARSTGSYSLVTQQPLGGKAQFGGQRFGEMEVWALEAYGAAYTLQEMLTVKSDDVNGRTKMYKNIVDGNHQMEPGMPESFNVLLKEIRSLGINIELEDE
RNAP (core or holo not stated), sequence (P0A8T7 whole entry, chain 3 of 3): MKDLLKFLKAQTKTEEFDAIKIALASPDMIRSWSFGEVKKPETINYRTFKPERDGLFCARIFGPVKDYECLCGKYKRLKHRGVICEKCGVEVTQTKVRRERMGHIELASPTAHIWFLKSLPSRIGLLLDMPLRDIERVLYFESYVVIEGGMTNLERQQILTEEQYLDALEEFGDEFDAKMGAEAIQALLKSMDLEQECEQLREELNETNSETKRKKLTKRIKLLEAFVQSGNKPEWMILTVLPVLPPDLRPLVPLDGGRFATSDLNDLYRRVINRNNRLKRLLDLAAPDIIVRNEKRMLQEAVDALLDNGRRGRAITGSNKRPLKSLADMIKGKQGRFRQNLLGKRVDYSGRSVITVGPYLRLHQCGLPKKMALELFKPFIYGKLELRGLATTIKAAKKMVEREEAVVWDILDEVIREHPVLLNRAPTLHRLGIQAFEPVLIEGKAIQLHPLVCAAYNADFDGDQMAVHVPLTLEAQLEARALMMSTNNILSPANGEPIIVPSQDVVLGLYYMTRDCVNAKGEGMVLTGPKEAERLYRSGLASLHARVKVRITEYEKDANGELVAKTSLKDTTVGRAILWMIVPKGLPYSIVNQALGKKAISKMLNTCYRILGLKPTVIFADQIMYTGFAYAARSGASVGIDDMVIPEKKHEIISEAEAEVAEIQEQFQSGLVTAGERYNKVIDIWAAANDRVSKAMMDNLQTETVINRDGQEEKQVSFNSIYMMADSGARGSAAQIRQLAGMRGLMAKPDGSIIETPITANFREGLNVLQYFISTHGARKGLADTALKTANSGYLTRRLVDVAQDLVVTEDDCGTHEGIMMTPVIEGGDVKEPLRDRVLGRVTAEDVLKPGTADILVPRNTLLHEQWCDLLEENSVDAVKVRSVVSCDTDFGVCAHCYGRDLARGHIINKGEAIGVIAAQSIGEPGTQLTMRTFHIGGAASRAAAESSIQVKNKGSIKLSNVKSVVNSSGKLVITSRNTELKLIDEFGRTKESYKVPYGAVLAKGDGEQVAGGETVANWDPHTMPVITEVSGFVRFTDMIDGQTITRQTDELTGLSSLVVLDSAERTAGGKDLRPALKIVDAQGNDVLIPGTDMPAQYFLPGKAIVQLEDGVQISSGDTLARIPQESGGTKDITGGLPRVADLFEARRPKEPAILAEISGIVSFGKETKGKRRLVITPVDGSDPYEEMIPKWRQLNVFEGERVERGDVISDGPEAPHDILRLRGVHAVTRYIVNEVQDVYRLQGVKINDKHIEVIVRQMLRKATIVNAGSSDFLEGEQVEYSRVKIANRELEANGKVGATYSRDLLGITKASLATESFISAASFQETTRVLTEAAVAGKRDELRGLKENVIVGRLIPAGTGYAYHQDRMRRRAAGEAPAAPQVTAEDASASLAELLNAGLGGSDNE

B1: IsrA (IS61, McaS) (structured_RNA)
RNA: ACCGGCGCAGAGGAGACAAUGCCGGAUUUAAGACGCGGAUGCACUGCUGUGUGUACUGUAGAGUCUGGCGGAUGUCGACAGACUCUAUUUUUUU
binds: [1] | [2] | [3]
